PMC3378326 (Structure(London, England:1993), 2012)

Assays:
FGF1 = FGF1 (UniProt P05230 1-155); assay: SPR
FGF8b = assay: SPR

Chain of FGF1 (P05230 whole entry): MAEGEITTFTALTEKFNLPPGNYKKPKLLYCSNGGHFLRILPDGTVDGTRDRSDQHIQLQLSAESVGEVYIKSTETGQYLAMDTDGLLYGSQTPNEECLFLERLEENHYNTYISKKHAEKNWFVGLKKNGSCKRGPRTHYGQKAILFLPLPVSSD

Binder	Kd (FGF1)	Kd (FGF8b)
D1-AB13ALA-D2-D3 (FGFR1c) (domain or fragment) RPSPTLPEQAQPWGAPVEVESFLVHPGDLLQLRCRLRDDVQSINWLRDGVQLAESNRTRITGEEVEVQDSVPADSGLYACVTSSPSGSDTTYFSVNVSDALPSSAAAAAAAAAAAAAKETDNTKPNRMPVAPYWTSPEKMEKKLHAVPAAKTVKFKCPSSGTPNPTLRWLKNGKEFKPDHRIGGYKVRYATWSIIMDSVVPSDKGNYTCIVENEYGSINHTYQLDVVERSPHRPILQAGLPANKTVALGSNVEFMCKVYSDPQPHIQWLKHIEVNGSKIGPDNLPYVQILKTAGVNTTDKEMEVLHLRNVSFEDAGEYTCLAGNSIGLSHHSAWLTVLEALEERPAVMTSPLYLE	268 nM	329 nM
D1-D2-D3^ΔAB (FGFR1c) (domain or fragment) RPSPTLPEQAQPWGAPVEVESFLVHPGDLLQLRCRLRDDVQSINWLRDGVQLAESNRTRITGEEVEVQDSVPADSGLYACVTSSPSGSDTTYFSVNVSDALPSSKETDNTKPNRMPVAPYWTSPEKMEKKLHAVPAAKTVKFKCPSSGTPNPTLRWLKNGKEFKPDHRIGGYKVRYATWSIIMDSVVPSDKGNYTCIVENEYGSINHTYQLDVVERSPHRPILQAGLPANKTVALGSNVEFMCKVYSDPQPHIQWLKHIEVNGSKIGPDNLPYVQILKTAGVNTTDKEMEVLHLRNVSFEDAGEYTCLAGNSIGLSHHSAWLTVLEALEERPAVMTSPLYLE	265 nM	390 nM
